Three molecules from patent US20180064808A1 (Hoffmann-La Roche, published 2018) can be followed below.

Test [1] addresses T1, human Fibroblast Activation Protein (FAP) (human, UniProt Q12884 27-760).
T1 construct: also called recombinant human FAP; Seprase
Briefly: Affinity human [nM], IgG format; method not stated.

In the next test the target is T2, murine FAP (murine, UniProt P97321 27-761).
T2 construct: also called mouse FAP
Kind of test: SPR (Biacore), simultaneous binding. For orientation: In SPR one partner is held on a chip, and binding of the other changes the refractive index at the surface.

Test [2] deals with T1, human Fibroblast Activation Protein …. Briefly: SPR (Biacore), simultaneous binding.

T1 sequence (Q12884 27-760 limits assumed): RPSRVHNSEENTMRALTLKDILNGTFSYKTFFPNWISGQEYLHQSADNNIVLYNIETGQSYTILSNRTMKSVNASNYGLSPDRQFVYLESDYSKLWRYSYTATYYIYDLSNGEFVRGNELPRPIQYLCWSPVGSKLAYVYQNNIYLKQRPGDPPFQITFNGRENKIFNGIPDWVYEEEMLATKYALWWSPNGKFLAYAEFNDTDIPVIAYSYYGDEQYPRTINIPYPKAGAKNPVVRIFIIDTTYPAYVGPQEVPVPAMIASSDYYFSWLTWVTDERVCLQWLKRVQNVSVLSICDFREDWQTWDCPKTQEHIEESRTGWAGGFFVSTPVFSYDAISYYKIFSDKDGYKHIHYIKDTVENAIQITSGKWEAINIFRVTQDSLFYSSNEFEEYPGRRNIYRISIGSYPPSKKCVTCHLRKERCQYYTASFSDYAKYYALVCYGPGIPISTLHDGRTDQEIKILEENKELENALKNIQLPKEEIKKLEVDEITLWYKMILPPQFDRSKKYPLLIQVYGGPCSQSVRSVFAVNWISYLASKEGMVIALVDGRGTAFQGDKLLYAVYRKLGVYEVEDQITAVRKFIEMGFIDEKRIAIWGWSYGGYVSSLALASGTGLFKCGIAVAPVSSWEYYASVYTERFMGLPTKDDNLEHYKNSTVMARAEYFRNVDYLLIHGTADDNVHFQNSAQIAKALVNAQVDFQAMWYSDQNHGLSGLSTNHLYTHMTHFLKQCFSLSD
T2 sequence (P97321 27-761 limits assumed): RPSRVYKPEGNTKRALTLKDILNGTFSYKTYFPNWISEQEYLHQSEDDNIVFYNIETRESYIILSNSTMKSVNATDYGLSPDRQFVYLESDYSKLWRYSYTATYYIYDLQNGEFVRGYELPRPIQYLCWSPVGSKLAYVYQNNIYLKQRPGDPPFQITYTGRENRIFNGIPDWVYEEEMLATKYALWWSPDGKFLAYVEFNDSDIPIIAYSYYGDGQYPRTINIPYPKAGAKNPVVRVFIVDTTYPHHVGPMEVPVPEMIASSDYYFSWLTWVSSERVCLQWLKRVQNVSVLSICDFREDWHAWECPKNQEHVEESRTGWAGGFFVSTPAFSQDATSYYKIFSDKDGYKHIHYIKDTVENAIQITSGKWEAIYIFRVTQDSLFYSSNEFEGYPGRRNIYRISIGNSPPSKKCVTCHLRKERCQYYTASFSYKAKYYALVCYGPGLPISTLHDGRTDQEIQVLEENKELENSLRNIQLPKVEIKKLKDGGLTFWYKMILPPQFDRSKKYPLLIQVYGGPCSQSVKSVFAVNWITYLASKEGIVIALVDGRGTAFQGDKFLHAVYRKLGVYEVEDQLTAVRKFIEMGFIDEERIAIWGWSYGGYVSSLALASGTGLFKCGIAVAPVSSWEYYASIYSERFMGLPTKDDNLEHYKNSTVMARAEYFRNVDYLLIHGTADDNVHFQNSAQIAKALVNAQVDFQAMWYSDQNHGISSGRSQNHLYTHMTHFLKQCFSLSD

B1: FAP binder 28H1 (IgG) (antibody, V domains shown)
VH: EVQLLESGGGLVQPGGSLRLSCAASGFTFSSHAMSWVRQAPGKGLEWVSAIWASGEQYYADSVKGRFTISRDNSKNTLYLQMNSLRAEDTAVYYCAKGWLGNFDYWGQGTLVTVSS
VL: EIVLTQSPGTLSLSPGERATLSCRASQSVSRSYLAWYQQKPGQAPRLLIIGASTRATGIPDRFSGSGSGTDFTLTISRLEPEDFAVYYCQQGQVIPPTFGQGTKVEIK
notes: also called FAP(28H1)
For the molecule B1, in test [1], the dissociation constant Kd (in general, the constant that tells how readily two partners part at equilibrium) is 2.6 nM.

B2: DR5(5E11)-28H1 VHCL 2+2 (bispecific antibody, human IgG1, kappa)
heavy: not shown
light: EIVLTQSPGTLSLSPGERATLSCRASQSVSSSYLAWYQQKPGQAPRLLIYGASSRATGIPDRFSGSGSGTDFTLTISRLEPEDFAVYYCQQGTTHPITFGQGTKVEIKRTVAAPSVFIFPPSDEQLKSGTASVVCLLNNFYPREAKVQWKVDNALQSGNSQESVTEQDSKDSTYSLSSTLTLSKADYEKHKVYACEVTHQGLSSPVTKSFNRGEC
chain: EIVLTQSPGTLSLSPGERATLSCRASQSVSRSYLAWYQQKPGQAPRLLIIGASTRATGIPDRFSGSGSGTDFTLTISRLEPEDFAVYYCQQGQVIPPTFGQGTKVEIKSSASTKGPSVFPLAPSSKSTSGGTAALGCLVKDYFPEPVTVSWNSGALTSGVHTFPAVLQSSGLYSLSSVVTVPSSSLGTQTYICNVNHKPSNTKVDKKVEPKSCD
notes: 28H1 CrossFab domain (VHCL) fused to the C-terminus of the anti-DR5 (5E11) heavy chain by a (G4S)4 connector; also called DR5-FAP bispecific antibody; bispecific, tetravalent DR5-FAP CrossMab molecule
Turning to B2, the binding result (with murine FAP; in test [2]) was “binds” in each case.

B3: DR5(5E11)-28H1 VHCL 2+2 P329GLALA (bispecific antibody, human IgG1, kappa, L234A L235A)
heavy: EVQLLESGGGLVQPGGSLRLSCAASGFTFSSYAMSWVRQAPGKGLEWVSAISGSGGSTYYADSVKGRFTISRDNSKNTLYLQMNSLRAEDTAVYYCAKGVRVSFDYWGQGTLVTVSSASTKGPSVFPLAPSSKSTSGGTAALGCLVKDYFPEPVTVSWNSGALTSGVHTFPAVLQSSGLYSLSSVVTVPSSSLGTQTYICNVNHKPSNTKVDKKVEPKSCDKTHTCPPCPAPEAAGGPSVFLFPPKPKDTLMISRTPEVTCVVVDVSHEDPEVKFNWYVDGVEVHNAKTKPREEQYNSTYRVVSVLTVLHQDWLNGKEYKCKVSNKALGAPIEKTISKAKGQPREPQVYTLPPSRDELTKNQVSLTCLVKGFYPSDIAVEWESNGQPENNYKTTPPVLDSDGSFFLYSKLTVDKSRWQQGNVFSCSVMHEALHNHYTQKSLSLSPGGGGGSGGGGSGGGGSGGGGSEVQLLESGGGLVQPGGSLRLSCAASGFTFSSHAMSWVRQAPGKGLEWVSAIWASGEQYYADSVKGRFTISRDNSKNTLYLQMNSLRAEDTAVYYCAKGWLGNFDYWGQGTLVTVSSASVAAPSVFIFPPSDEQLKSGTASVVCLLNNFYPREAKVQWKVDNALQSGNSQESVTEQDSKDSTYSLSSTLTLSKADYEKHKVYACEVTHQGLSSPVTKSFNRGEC
light: B2 light
chain: B2 chain
notes: As DR5(5E11)-28H1 VHCL 2+2, with removal of the C-terminal lysine and the P329G/LALA mutation in Fc; also called DR5-FAP bispecific antibody; bispecific, tetravalent DR5-FAP CrossMab molecule
Turning to B3, the binding result (with murine FAP; in test [2]) was “binds” throughout.
